Experimental data reported in patent US20250154287A1 (Pfizer, published 2025).

Experiments:
[1] = target: T1, Short MIGIS-α form (human); assay: crystal structure
T1 construct: fused to the N-terminus of the VH of Fab-0027 in the crystal; also called Short Form
T1 peptide: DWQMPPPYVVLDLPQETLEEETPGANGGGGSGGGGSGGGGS

[2] = target: T2, Long MIGIS-α form (human); assay: crystal structure
T2 construct: fused to the N-terminus of the VH of Fab-0027 in the crystal; also called long MIGIS-α peptide; Long Form
T2 peptide: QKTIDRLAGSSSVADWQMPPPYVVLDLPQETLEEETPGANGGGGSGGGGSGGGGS

[3] = target: recombinant human CD3 epsilon (human, UniProt P07766 23-126, limits assumed); assay: SPR
Chain of recombinant human CD3 epsilon (P07766 23-126 limits assumed): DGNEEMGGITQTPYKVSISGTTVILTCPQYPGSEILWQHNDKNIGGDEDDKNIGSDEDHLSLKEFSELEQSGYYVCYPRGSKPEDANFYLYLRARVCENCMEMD

B1: Fab of GBT-IgA-0027 (Fab-0027) (Fab, V domains shown)
VH: QVQLVESGGGVVQPGRSLRLSCAASGFTFSSYGMHWVRQAPGKGLEWVAVISYDGSNKYYADSVKGRFTISRDNSKNTLYLQMNSLRAEDTAVYYCAKLYGGNPKDTIYHWGRGTLVTVSS
VL: not shown
notes: Fab; constant parts not specified; antigen and Fab are written here as two molecules; also called VH-Fab-0027; T18 Fab
binding result [1]: binds
binding result [2]: binds

B2: BMD-IgA-1156 (anti-CD3 binding arm h2B5v6) (antibody, V domains shown)
VH: EVQLVESGGGLVQPGGSLRLSCAASGFTFSDYYMTWVRQAPGKGLEWVAFIRNQARGYTSDHNPSVKGRFTISRDNAKNSLYLQMNSLRAEDTAVYYCARDRPSYYVLDYWGQGTTVTVSS
VL: DIQMTQSPSSLSASVGDRVTITCTSSQSLFNVRSQKNYLAWYQQKPGKAPKLLIYWASTRESGVPSRFSGSGSGTDFTLTISSLQPEDFATYYCKQSYDLFTFGGGTKVEIKR
notes: Only the anti-CD3 chains are tied to this name
Kd [3]: 17 nM
